# Assay: yeast display, Sf9 membrane polyspecificity reagent, FACS + sequencing; frameworks hold sequencing errors
# Procedure, shortened: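 Using colony PCR, genes from sorted yeast display clones were amplified, then sequenced on MiSeq at 2 × 250 and filtered by CDR length. The clones had been stained with 10% biotinylated, detergent-solubilized Sf9 membrane reagent for 1 hour at 4 °C and sorted by FACS into low and high (top ~1%) gates on anti-HA and streptavidin fluorescence. Polyreactivity labels come from the gate of origin.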
row,Sequence,polyreactivity (PSR sort gate)
1,QVQLVESGGGLVQAGGSLRLSCAASGFIFAGYAMGWYRQAPGKERELVAAISSRGGSTYYADSVKGRFTISRDNAKNTVYLQMNSLKPEDTAVYYCNKYYYGFTPDGYKKMDYWGQGTQVTVSS,low polyreactivity
2,QVQLVESGGGLVQAGGSLRLSCAASGFIFAINAMGWYRQAPGKEREFVAAISSDGASTYYADSVKGRFTISRDNAKNTVYFQMNSLKPEDTAVYYCNAVPYEWTYPYEYYYWGQGTQVTVSS,low polyreactivity
3,QVQLVESGGGLVQAGGSLRLSCAASGFIFAKYAMGWYRQAPGKEMELVAAITSGGSTNYADSVKGRFTISRDNAKNTVYLQMNSLKPDDTAVYYCNRGFDWWYRYRHYDYWGQGTQVTVSS,low polyreactivity
4,QVQLVESGGGLVQAGGSLRLSCAASGFIFAKYAMGWYRQAPGKERALGAAITSGGSTNYADSVKGRFTISRDNAKNTLYLQMNSLNPEDTAVYSCNRGFDWCYRYRHYDYWGQGTQVTVSS,low polyreactivity
5,QVQLVESGGGLVQAGGSLRLSCAASGFIFANYVMGWYRQAPGKERELVAAITYSGNTYYADSVKGRFTISRDNAKNTVYLQMNSLKPVDTAVYYCNADYVEGGLPGYDFDYWGQGTQVTVSS,low polyreactivity
6,QVQLVESGGGLVQAGGSLRLSCAASGFIFAPNAMGWYRQAPGKERELVAAISQSGASTFYADSVKGRFTISRDNAKNTVYFQMNSLKPEDTAVYYCAAPPYYSYDYWGQGTQVTVSS,low polyreactivity
7,QVQLVESGGGLVQAGGSLRLSCAASGFIFARNAMGRYRQDTGKERELVAVISTRGRTYYADSVKGRFTISRDNSKNTVYLQMNSLKPEDTAVYYCNADKVIGYDYWGQCTQVTVSS,high polyreactivity
8,QVQLVESGGGLVQAGGSLRLSCAASGFIFARYAMGWYRQAPGKEREFVAAITWSGGTTYYADSVKGRFTISRDYAKNTVYFQMNSLKPEDTAVYYCAARWGKTLWQYNYWGQGTQVTVSS,high polyreactivity
9,QVQLVESGGGLVQAGGSLRLSCAASGFIFASNVMGWYRQAPGKERELVAAISWSGTRTYYADSVKGRFTISRDNAKNTVYLQMNSLKPEDTAVYYCAARRLYAGHQYDYWGQGTQVTVSS,high polyreactivity
10,QVQLVESGGGLVQAGGSLRLSCAASGFIFASYAMGWYRQAPGKERELVAAISSRGGRTYYADSVKGRFTISRDNAKNTVSLQMNSLKPEDTAVYYCAAENYWLAWYKGYDYCGQGTQVTVSS,high polyreactivity
11,QVQLVESGGGLVQAGGSLRLSCAASGFIFATNAMGWYRQAPGKERELVAAISRSGGSTYYADSVKGRFTISRDNAKNTVYLQMYSLKPEDTAVYYCATPRYRYYTIYDYGYWGQGTQVNVSS,high polyreactivity
12,QVQLVESGGGLVQAGGSLRLSCAASGFIFATNTMGWYRQAPGKERELVAASSTYYADSVKGRFTISRDNAKNTVYLQMNSLKPEDTAVYYCNADRDSYIGFVVWAGEYWGQGSQVTVSS,low polyreactivity
13,QVQLVESGGGLVQAGGSLRLSCAASGFIFAVYAMGWYRQAPGKERELVARISSGRGSTYYADSVKGRFTISRDNAKNTVYFQMNSLKPEDTAVYYCAADPVHRFPGTGGYWGQGTQVTVSS,low polyreactivity
14,QVQLVESGGGLVQAGGSLRLSCAASGFIFAWNDMGWYRQAPGKERELVAAISSGTSTNYADSVKGRFTISRDNAKNTVYLQMNSLKPEDTGVYYCNVDSPLQPYRYYYWGQGSQVTVSS,low polyreactivity
15,QVQLVESGGGLVQAGGSLRLSCAASGFIFAWYAMGWYRQAPGKERELVADITSGGDTSYADSVKGRFTISLDNAKNTVYLQMNSLKPEDTAVYYCAAVWEPWNIRLVLTAVDYWGQGTQVTVSS,low polyreactivity
16,QVQLVESGGGLVQAGGSLRLSCAASGFIFAYNAMGWYRQAPGKEREFVAAISRSGGSTRYADSVKGRFTISRDNAKNTVYLQMNSLKPEDTAVYYCAARSGSWGQGTQVTVSS,high polyreactivity

row,Sequence,polyreactivity (PSR sort gate)
1,QVQLVESGGGLVQAGGSLRLSCAASGFIFAYNAMGWYRQAPGKERELVAAISRSGGSTRYADSVKGRFTISRDNAKNTVYLQMNSLKPEDTAVYYCAARSGSWGQGTQVTVSS,high polyreactivity
2,QVQLVESGGGLVQAGGSLRLSCAASGFIFAYNAMGWYRQAPGKERELVAAISWSGGSTYYADSVKGRFTISRDNAKNTVYLQMNSLKPEDTAVYYCNAFSYYGARYDYWGLGTQVTVSS,high polyreactivity
3,QVQLVESGGGLVQAGGSLRLSCAASGFIFAYNAMGWYRQAPGKERELVAGISRRGGSTYYADSVKGRFTISRDNAKNTVYLQMNSLKPEDTAVYYCAADSFTYWSWLHGYWGQGTQVTVSS,high polyreactivity
4,QVQLVESGGGLVQAGGSLRLSCAASGFIFAYNAMGWYRQAPGKERELVASIRTRAGSTYYADSVKGRFTISRDNAKNTDYLQMNSLKPADTAVYYSAARPFPRRYDYWGQGTQVTVSS,low polyreactivity
5,QVQLVESGGGLVQAGGSLRLSCAASGFIFAYYAMGWYRQAPGKERELVAAISQIGGRTYYADSVKGRFTISRDNAKNTVYLQMNSLKPEDTAVYYCAKAGAYKYGYWGQGTQVTVSS,high polyreactivity
6,QVQLVESGGGLVQAGGSLRLSCAASGFIFAYYAMGWYRQAPGKERELVAAITWSGGITYYADSVKGRFTISRDNAKNTVYLQMNSLKPEDTAVYYCNRAWSSHRYYYWGQGTQVTVSS,high polyreactivity
7,QVQLVESGGGLVQAGGSLRLSCAASGFIFDAYAMGWYRPAPGKEREFVAGISIGGRTNYADSVKGRFTISRDNAKNTVYLQMNSLKPEDSAVYYCAARNYRYYYGSYFRGPITNYEYWGQGTQVTVSS,low polyreactivity
8,QVQLVESGGGLVQAGGSLRLSCAASGFIFDDNAMGRYRQAPGKERELVAAITSGGGSTYYADSVKGRFTISRDNAKNTVYLQMNSLKPEDNAVYYCNAVPSQHVEFDYWGQGTQVTVSS,low polyreactivity
9,QVQLVESGGGLVQAGGSLRLSCAASGFIFDDNSMGWYRQAPGTEREFVAAISQGAGSTYYADSVKGRFTISRDTAKNTVNLQMNSLKPEDTAVYYCNNGRPKYWYGYKYDYWGHGTQVTVSS,low polyreactivity
10,QVQLVESGGGLVQAGGSLRLSCAASGFIFDFYAMGWYRQAPGKERELVADITGGGSTYYADSVKGRFTISRDNAKNTVYLQMNSLKPEDTAVYYCAASYGVYWYSFWYHVAWYDYWGQGTQVTVSS,low polyreactivity
11,QVQLVESGGGLVQAGGSLRLSCAASGFIFDFYTMGWYRQATGKESELVAAITWSGDSTYYADSVKGRFTISRDNAKNTVYLQMNSLKPEDTAVYYCAADWWGVWYFDYDYWGQGTQVTVSS,low polyreactivity
12,QVQLVESGGGLVQAGGSLRLSCAASGFIFDGYAMGWYRQAPGKERELVAAIDSGGDRTYYADSVKGRFTISRDNAKYTVYLQMNSLKPEDTAVYYCAADSSDPTGYDYWGQGTQVTVSS,low polyreactivity
13,QVQLVESGGGLVQAGGSLRLSCAASGFIFDHYAMGWYRQAPGKERELVAAISGSGGSTYYADSVKGRFPISRDNAKNTVYLQMNSLKPEDTAVYYCAARPGSKYAQRGYWGQGTHVTVSS,high polyreactivity
14,QVQLVESGGGLVQAGGSLRLSCAASGFIFDINAIGWYRQAPGKERELVAAISYSGGSTYYADSVKGRFTISRDNAKNTVYLQMNSLKPEDTAVYYCAADSGPDSDEGDYWGQGTQVTVSS,low polyreactivity
15,QVQLVESGGGLVQAGGSLRLSCAASGFIFDIYAMGWYRQAPGKERELVASITWDDGSTYYADSVKGRFTISRDNAKNTVYLQMNRLKPVDTAVYYCAADFEAGGYSLDYWGQGTQVTVSS,low polyreactivity
16,QVQLVESGGGLVQAGGSLRLSCAASGFIFDLYAMGWSRQAPGKERELVAAITYSGGSTYYADSVKGRFTISRDNAKNTVYLQMNSLKPEDTAVYYCAAYYGGRGYWGQGTQVTVSS,low polyreactivity
